Results reported in patent US20240301052A1 (LANOVA MEDICINES DEVELOPMENT, published 2024).
Where a chain is given by its changes, count along the chain named. One block for each binder: values may come before it.

What was measured:
[1] = target: T1, human SLC34A2 (human, UniProt O95436 1-690); assay: FACS, HEK293/human SLC34A2 cells
T1 construct: whole, on cells; also called human solute carrier 34 A2; NaPi2b
T1 sequence (looked up): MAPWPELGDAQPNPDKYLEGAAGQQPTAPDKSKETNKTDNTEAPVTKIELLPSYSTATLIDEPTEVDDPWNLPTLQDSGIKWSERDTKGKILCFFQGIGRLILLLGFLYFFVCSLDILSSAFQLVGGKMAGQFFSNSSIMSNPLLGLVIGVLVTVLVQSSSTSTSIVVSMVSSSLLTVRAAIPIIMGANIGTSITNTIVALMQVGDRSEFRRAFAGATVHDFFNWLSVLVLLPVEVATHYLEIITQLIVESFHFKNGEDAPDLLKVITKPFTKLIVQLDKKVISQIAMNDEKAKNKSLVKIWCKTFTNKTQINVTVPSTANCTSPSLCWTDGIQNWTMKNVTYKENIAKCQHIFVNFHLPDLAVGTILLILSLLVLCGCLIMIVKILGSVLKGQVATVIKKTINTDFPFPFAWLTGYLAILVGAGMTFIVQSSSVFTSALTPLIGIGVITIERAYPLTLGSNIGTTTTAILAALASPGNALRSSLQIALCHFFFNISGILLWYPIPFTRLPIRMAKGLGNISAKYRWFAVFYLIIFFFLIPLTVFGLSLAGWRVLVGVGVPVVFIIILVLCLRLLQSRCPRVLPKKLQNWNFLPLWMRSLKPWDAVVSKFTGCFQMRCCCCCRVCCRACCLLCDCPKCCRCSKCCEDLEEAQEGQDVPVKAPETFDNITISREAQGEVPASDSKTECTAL
Method: (§1) Briefly, OVCAR3 cells or HEK293 cells expressing human SLC34A2 were incubated with chimeric antibodies (from 200 nM, 4 folds dilution, 8 points). After incubation at 4° C. for 60 minutes, the cells were washed with FACS buffer twice, then stained with fluorescent conjugated secondary antibody at 4° C. for 30 minutes. After that the cells were washed twice and analyzed by flow cytometry.

[2] = target: T1, human SLC34A2; assay: FACS, OVCAR3 cells
Method: The binding of these humanized antibodies to OVCAR3 cells was evaluated as described above, and the results are shown in FIG. 12A-D and Tables 16A-D.

[3] = target: T1, human SLC34A2; assay: FACS, OVCAR3 cells; remark: listed apart in the source
Method: In this example, cell based binding of chimeric antibodies (hIgG1) prepared from the murine antibodies on human SLC34A2 expressing cells were assessed using flow cytometry.
as §1

B1: xi95H11A1D8VH-1 hIgG1 (antibody, V domains shown)
VH: QVQLQQPGAELVKPGASVKMSCKTSGYTFTTNNMHWVKQTPGQGLEWIGAIYPGNGATAYNQKFKGKATLTADKSSSTAYMQLSSLTSEASAVYYCARGMYGHGAMDYWGQGTSVIVSS
VL: DIVLTQSPATLSVTPGDSVSLSCRARQNIGNNLYWYQQKSNESPRLLIKYASQSISGIPSRFSGSGSGTDFTLTINSVETEDFGVYFCQQSFSWPLTFGAGTKLELK
notes: chimeric, hIgG1; the suffix VH-1 is not explained
EC50 [1]: 63.4 nM
Top (MFI) [1]: 12700 MFI

B14: 62G10E4G8.p3.z7 hIgG1 (antibody, V domains shown)
VH: QVQLVQSGAEVKKPGASVKVSCKASGYTFPSYITHWVRQAPGQGLEWIGAIYPGNADTSYIQKFKGRVTMTADKSTSTVYMELSSLRSEDTAVYYCARGTYGTSAWFTYWGQGTLVTVSS
VL: EIVLTQSPATLSVSPGERATLSCRARQNIGNNLYWYQQKPGQSPRLLIKYASQSISGIPSRFSGSGSGTDFTLTISSLQSEDFAVYFCQQSFSWPLTFGQGTKLEIK
notes: humanized hIgG1
EC50 [2]: 6.08 nM
Top (MFI) [2]: 26800 MFI

B15: 62G10E4G8.p3.z6 hIgG1 (antibody, V domains shown)
VH: B14 VH
VL: B14 VL with L4M, S60A, D70E
notes: humanized hIgG1
EC50 [2]: 8.06 nM
Top (MFI) [2]: 28200 MFI

B16: 62G10E4G8.p3.z16 hIgG1 (antibody, V domains shown)
VH: B14 VH with K12V, V20M, R38K, V68A, M70L, V79A
VL: B14 VL with V13A, L78V, Q100A
notes: humanized hIgG1
EC50 [2]: 10.9 nM
Top (MFI) [2]: 31900 MFI

B18: 62G10E4G8.p3.z9 hIgG1 (antibody, V domains shown)
VH: B14 VH with R38K, M70L, V79A
VL: B14 VL with L4M, S43A, K49Y, S60A, D70E, F87Y
notes: humanized hIgG1
EC50 [2]: 24.1 nM
Top (MFI) [2]: 31300 MFI

B19: 62G10E4G8.p3.z1 hIgG1 (antibody, V domains shown)
VH: B14 VH with I48M, A72R, K74T
VL: B14 VL with L4M, S43A, K49Y, S60A, D70E, F87Y
notes: humanized hIgG1
EC50 [2]: 944 nM
Top (MFI) [2]: 87700 MFI

B20: 62G10E4G8.p3.z14 hIgG1 (antibody, V domains shown)
VH: B14 VH with K12V, V20M, R38K, V68A, M70L, V79A
VL: B14 VL with L4M, S60A, D70E
notes: humanized hIgG1
EC50 [2]: 4.58 nM
Top (MFI) [2]: 27900 MFI

B21: 62G10E4G8.p3.z10 hIgG1 (antibody, V domains shown)
VH: B14 VH with R38K, M70L, V79A
VL: B14 VL with L4M, S60A, D70E
notes: humanized hIgG1
EC50 [2]: 4.87 nM
Top (MFI) [2]: 27400 MFI

B22: 62G10E4G8.p3.z2 hIgG1 (antibody, V domains shown)
VH: B14 VH with I48M, A72R, K74T
VL: B14 VL with L4M, S60A, D70E
notes: humanized hIgG1
EC50 [2]: 32.9 nM
Top (MFI) [2]: 29700 MFI

B23: 62G10E4G8.p3.z3 hIgG1 (antibody, V domains shown)
VH: B14 VH with I48M, A72R, K74T
VL: B14 VL
notes: humanized hIgG1
EC50 [2]: 17.3 nM
Top (MFI) [2]: 31300 MFI

B24: 62G10E4G8.p3.z5 hIgG1 (antibody, V domains shown)
VH: B14 VH
VL: B14 VL with L4M, S43A, K49Y, S60A, D70E, F87Y
notes: humanized hIgG1
EC50 [2]: ~1360 nM
Top (MFI) [2]: ~230000 MFI

B25: 62G10E4G8.p3.z4 hIgG1 (antibody, V domains shown)
VH: B14 VH with I48M, A72R, K74T
VL: B14 VL with V13A, L78V, Q100A
notes: humanized hIgG1
EC50 [2]: 16.3 nM
Top (MFI) [2]: 29900 MFI

B26: xi20H2F1 hIgG1 (antibody, V domains shown)
VH: EVKLVESGGNLVKPGGSLKLSCAASGFTFSSYAMSWVRQTPEKRLEWVASISNGGTTYYPDSVKGRFTISRDVARNILYLQMTSLRSEDTAMYYCARTHYRDFVYWGQGTLVTVSA
VL: EIVLTQAAFSNPVTLGTSASISCRSSKSLLHSNGITYLYWYLQKPGQSPQLLIYQMSNLASGVPDRFSCSGSGTDFTLRISRVEAEDVGVYYCAQNLEFPWTFGGGTKLEIK
notes: chimeric, hIgG1
EC50 [1]: 1.31 nM
Top (MFI) [1]: 42000 MFI
EC50 [3]: 2.73 nM
Top (MFI) [3]: 26500 MFI

Other lines, results leading:

EC50 [2]: 2.75 nM
Top (MFI) [2]: 27100 MFI
B2: 30H9B8F9.p1.z1 hIgG1 (antibody, V domains shown)
VH: QVQLVQSGAEVKKPGASVKVSCKASGYTFTTNNMHWVRQAPGQGLEWMGAIYPGSGATAYNQKFKGRVTMTRDTSTSTVYMELSSLRSEDTAVYYCASGMYGHGAMDYWGQGTLVTVSS
VL: DIQLTQSPSFLSASVGDRVTITCKASQDVGTAVAWYQQKPGKAPKLLIYWATTRHSGVPSRFSGSGSGTEFTLTISSLQPEDFATYYCQQYSSNPLTFGQGTKLEIK
notes: humanized hIgG1

EC50 [2]: 1.05 nM
Top (MFI) [2]: 26500 MFI
B3: 30H9B8F9.p1.z15 hIgG1 (antibody, V domains shown)
VH: QVQLVQSGAEVVKPGASVKMSCKTSGYTFTTNNMHWVKQAPGQGLEWIGAIYPGSGATAYNQKFKGRATLTADKSTSTAYMELSSLRSEATAVYYCARGMYGHGAMDYWGQGTSVTVSS
VL: B2 VL with L4M, A43S, S60D, T72I, L73F, L78V, Y87F, Q100A
notes: humanized hIgG1

EC50 [2]: 1.69 nM
Top (MFI) [2]: 26700 MFI
B4: 30H9B8F9.p1.z7 hIgG1 (antibody, V domains shown)
VH: B2 VH with A24T, M48I, R72A, S98R
VL: B2 VL with L4M, A43S, S60D, T72I, L73F, L78V, Y87F, Q100A
notes: humanized hIgG1

EC50 [2]: 3.09 nM
Top (MFI) [2]: 25200 MFI
B5: 30H9B8F9.p1.z2 hIgG1 (antibody, V domains shown)
VH: B2 VH
VL: B2 VL with A43S, S60D, L73F, Y87F
notes: humanized hIgG1

EC50 [2]: 1.43 nM
Top (MFI) [2]: 27000 MFI
B6: 30H9B8F9.p1.z11 hIgG1 (antibody, V domains shown)
VH: B3 VH with M20V, K38R, A68V, S114L
VL: B2 VL with L4M, A43S, S60D, T72I, L73F, L78V, Y87F, Q100A
notes: humanized hIgG1

EC50 [2]: 1.93 nM
Top (MFI) [2]: 30700 MFI
B7: 30H9B8F9.p1.z10 hIgG1 (antibody, V domains shown)
VH: B3 VH with M20V, K38R, A68V, S114L
VL: B2 VL with A43S, S60D, L73F, Y87F
notes: humanized hIgG1

EC50 [2]: 2.38 nM
Top (MFI) [2]: 19600 MFI
B8: 30H9B8F9.p1.z3 hIgG1 (antibody, V domains shown)
VH: B2 VH
VL: B2 VL with L4M, A43S, S60D, T72I, L73F, L78V, Y87F, Q100A
notes: humanized hIgG1

EC50 [2]: 1.9 nM
Top (MFI) [2]: 26200 MFI
B9: 30H9B8F9.p1.z8 hIgG1 (antibody, V domains shown)
VH: B2 VH with A24T, M48I, R72A, S98R
VL: DIVMTQSPSFLSASVGDRVTITCKASQDVGTAVAWYQQKPGKSPKLLIYWATTRHSGVPDRFTGSGSGTDFIFTISSVQPEDFATYFCQQYSSNPLTFGAGTKLEIK
notes: humanized hIgG1

EC50 [2]: 1.4 nM
Top (MFI) [2]: 27600 MFI
B10: 30H9B8F9.p1.z12 hIgG1 (antibody, V domains shown)
VH: B3 VH with M20V, K38R, A68V, S114L
VL: B9 VL
notes: humanized hIgG1

EC50 [2]: 1.31 nM
Top (MFI) [2]: 27300 MFI
B11: 30H9B8F9.p1.z14 hIgG1 (antibody, V domains shown)
VH: B3 VH
VL: B2 VL with A43S, S60D, L73F, Y87F
notes: humanized hIgG1

EC50 [2]: 2.76 nM
Top (MFI) [2]: 20400 MFI
B12: 30H9B8F9.p1.z4 hIgG1 (antibody, V domains shown)
VH: B2 VH
VL: B9 VL
notes: humanized hIgG1

EC50 [2]: 1.41 nM
Top (MFI) [2]: 26500 MFI
B13: 30H9B8F9.p1.z16 hIgG1 (antibody, V domains shown)
VH: B3 VH
VL: B9 VL
notes: humanized hIgG1

EC50 [2]: 2.96 nM
Top (MFI) [2]: 25400 MFI
B17: 62G10E4G8.p3.z12 hIgG1 (antibody, V domains shown)
VH: B14 VH with R38K, M70L, V79A
VL: B14 VL with V13A, L78V, Q100A
notes: humanized hIgG1
